Data as given in paper doi:10.1101/2025.11.27.690710, “Direct recruitment of RNA Polymerase II by NANOG to activated target genes” (bioRxiv, 2025).

Target: the molecule itself
Test: BASIL (Bead Assay of Interacting Ligands); biotinylated oligonucleotide with a single NANOG site on streptavidin beads, incubated with rNANOG at 1mg/ml for 1 hour, washed, then with fluorescein amidite labelled oligonucleotide of the same sequence; fluorescence on the bead only if NANOG is a multimer

B1: Recombinant full length NANOG, purified and refolded (natural protein, mouse, UniProt Q80Z64 1-305, looked up)
chain: MSVGLPGPHSLPSSEEASNSGNASSMPAVFHPENYSCLQGSATEMLCTEAASPRPSSEDLPLQGSPDSSTSPKQKLSSPEADKGPEEEENKVLARKQKMRTVFSQAQLCALKDRFQKQKYLSLQQMQELSSILNLSYKQVKTWFQNQRMKCKRWQKNQWLKTSNGLIQKGSAPVEYPSIHCSYPQGYLVNASGSLSMWGSQTWTNPTWSSQTWTNPTWNNQTWTNPTWSSQAWTAQSWNGQPWNAAPLHNFGEDFLQPYVQLQQNFSASDLEVNLEATRESHAHFSTPQALELFLNYSVTPPGEI
notes: NANOG, mouse, full length; Forms multimers by the BASIL assay; the size of the oligomer is not measured here; also called purified NANOG; rNANOG
  binding result: binds
